Reference: patent US20230227545A1 (published 2023)

Assays:
[1] = molecular target: T1, human IL-1β (human, UniProt P01584 117-269); assay: cell-based or functional assay
[2] = molecular target: T2, cynomolgus IL-1β (cynomolgus macaque, UniProt P79182 117-268); assay: cell-based or functional assay
T2 sequence (looked up): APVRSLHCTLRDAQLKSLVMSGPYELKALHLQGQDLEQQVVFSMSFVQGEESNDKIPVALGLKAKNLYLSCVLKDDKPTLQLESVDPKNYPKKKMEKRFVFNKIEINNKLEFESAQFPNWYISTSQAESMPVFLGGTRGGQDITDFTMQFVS

[3] = molecular target: T3, pig IL-1β (pig, UniProt P26889 115-267); assay: SPR, Biacore 8K, mAb captured on anti-human Fc chip, soluble IL-1β as analyte
T3 construct: also called pig IL-β
T3 sequence (looked up): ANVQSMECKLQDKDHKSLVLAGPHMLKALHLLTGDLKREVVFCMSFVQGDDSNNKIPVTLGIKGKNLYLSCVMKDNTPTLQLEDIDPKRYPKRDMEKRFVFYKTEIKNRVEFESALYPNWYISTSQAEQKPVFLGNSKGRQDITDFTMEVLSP
Method: (§1) Affinity assessment of 05H21A, 15N14A, and 08F17A against human IL-1β was performed by Surface Plasmon Resonance (SPR) using a Biacore 8k. Cross-reactivity of the same antibody panel was also assessed against cyno, mouse, rat and pig IL-1β.
(§2) SPR is a label-free technique to study the strength of an interaction between two binding partners by measuring the change in mass upon complex formation and dissociation. Briefly, antibodies were immobilized on a sensor chip which was coupled with goat anti-human Fc (GAH-Fc C1 sensor chip). Soluble IL-1β was flowed over the immobilized antibody and association/dissociation responses were monitored. Kinetic information (on-rate and off-rate constants) were extracted by fitting sensorgrams to the 1:1 Langmuir model. Binding affinity (KD) were reported as the ratio of rate constants (koff/kₒₙ).

[4] = molecular target: T2, cynomolgus IL-1β; assay: SPR, Biacore 8K, mAb captured on goat anti-human Fc C1 chip, soluble IL-1β as analyte, 1:1 Langmuir fit
Method: as §1, §2

[5] = molecular target: T1, human IL-1β; assay: as above
Method: as §1, §2

[6] = molecular target: T1, human IL-1β; assay: cell-based or functional assay; remark: listed apart in the source
[7] = molecular target: T1, human IL-1β; assay: cell-based or functional assay; remark: listed apart in the source

IC30, inhibition of IL-6 release, human PBMCs (n=5 donors), 10 pM rhIL-1β [1]: 43 pM | IC30, inhibition of IL-6 release, human PBMCs (n=5 donors), 30 pM rhIL-1β [1]: 0.104 nM | IC50, inhibition of IL-6 release, human PBMCs (n=5 donors), 10 pM rhIL-1β [1]: 70 pM | IC50, inhibition of IL-6 release, human PBMCs (n=5 donors), 30 pM rhIL-1β [1]: 0.164 nM | IC90, inhibition of IL-6 release, human PBMCs (n=5 donors), 10 pM rhIL-1β [1]: 0.244 nM | IC90, inhibition of IL-6 release, human PBMCs (n=5 donors), 30 pM rhIL-1β [1]: 0.533 nM | IC30, inhibition of G-CSF release, cynomolgus lung fibroblasts (CLF), 15 pM rcynoIL-1β [2]: 0.195 nM | IC30, inhibition of IL-6 release, cynomolgus dermal fibroblasts (CDF), 5 pM rcynoIL-1β [2]: 89 pM | IC30, inhibition of IL-6 release, cynomolgus lung fibroblasts (CLF), 15 pM rcynoIL-1β [2]: 0.214 nM | IC50, inhibition of G-CSF release, cynomolgus dermal fibroblasts (CDF), 5 pM rcynoIL-1β [2]: 59 pM | IC50, inhibition of G-CSF release, cynomolgus lung fibroblasts (CLF), 15 pM rcynoIL-1β [2]: 0.27 nM | IC50, inhibition of IL-6 release, cynomolgus dermal fibroblasts (CDF), 5 pM rcynoIL-1β [2]: 0.175 nM | IC50, inhibition of IL-6 release, cynomolgus lung fibroblasts (CLF), 15 pM rcynoIL-1β [2]: 0.306 nM | IC90, inhibition of G-CSF release, cynomolgus lung fibroblasts (CLF), 15 pM rcynoIL-1β [2]: 0.63 nM | IC90, inhibition of IL-6 release, cynomolgus dermal fibroblasts (CDF), 5 pM rcynoIL-1β [2]: 0.997 nM | IC90, inhibition of IL-6 release, cynomolgus lung fibroblasts (CLF), 15 pM rcynoIL-1β [2]: 0.779 nM | binding result [3]: no binding | Kd [4]: 0.022 nM | koff [4]: 0.000348 s⁻¹ | kon [4]: 1.58e+07 M⁻¹ s⁻¹ | Kd [5]: 0.0197 nM | koff [5]: 0.000422 s⁻¹ | kon [5]: 2.14e+07 M⁻¹ s⁻¹ | IC30, inhibition of rhIL-1β-induced cytokine release, NHDF donor 29114 [6]: 0.039 nM | IC30, inhibition of rhIL-1β-induced cytokine release, NHLF donor 34325 [6]: 0.071 nM | IC30, inhibition of rhIL-1β-induced cytokine release, NHLF donor 35234 [6]: 0.042 nM | IC50, inhibition of rhIL-1β-induced cytokine release, NHDF donor 29114 [6]: 0.078 nM | IC50, inhibition of rhIL-1β-induced cytokine release, NHLF donor 34325 [6]: 0.167 nM | IC50, inhibition of rhIL-1β-induced cytokine release, NHLF donor 35234 [6]: 0.098 nM | IC90, inhibition of rhIL-1β-induced cytokine release, NHDF donor 29114 [6]: 0.49 nM | IC90, inhibition of rhIL-1β-induced cytokine release, NHLF donor 34325 [6]: 1.51 nM | IC90, inhibition of rhIL-1β-induced cytokine release, NHLF donor 35234 [6]: 0.89 nM | IC30, inhibition of rhIL-1β-induced CXCL5 release, human whole blood (5 donors) [7]: 0.4 nM | IC30, inhibition of rhIL-1β-induced G-CSF release, human whole blood (5 donors) [7]: 0.364 nM | IC30, inhibition of rhIL-1β-induced IL-6 release, human whole blood (5 donors) [7]: 0.393 nM | IC50, inhibition of rhIL-1β-induced CXCL5 release, human whole blood (5 donors) [7]: 0.622 nM | IC50, inhibition of rhIL-1β-induced G-CSF release, human whole blood (5 donors) [7]: 0.632 nM | IC50, inhibition of rhIL-1β-induced IL-6 release, human whole blood (5 donors) [7]: 0.631 nM | IC90, inhibition of rhIL-1β-induced CXCL5 release, human whole blood (5 donors) [7]: 1.95 nM | IC90, inhibition of rhIL-1β-induced G-CSF release, human whole blood (5 donors) [7]: 2.64 nM | IC90, inhibition of rhIL-1β-induced IL-6 release, human whole blood (5 donors) [7]: 2.16 nM
B1: 05H21A (antibody, human IgG1, lambda, V domains shown)
VH: QVTLRESGPALVKPTQTLTLTCTFSGFSLSTSGMWVSWIRQPPGKALEWLALIDWGDDKYYTTSLKTRLTISKDTSKNQVVLTMTNMDPVDTATYYCARMREGSRAFDIWGQGTVVTVSS
VL: QSVLTQPPSVSEAPRQRVTISCSGSSSNIGDNAVNWYQQLPGKAPKLLIYNDDLLSSGVSDRFSGSKSGTSASLAISGLQSEDEADYYCAAWDDSLNGPVFGGGTKLTVLG
notes: Lambda light chain; also called 05H21A (anti-IL-1β) mAb [IgG1: YTE]
